From US20200353078A1 (AstraZeneca / MedImmune, published 2020)
Values belong to the binder of their own block, whether it stands above or below them.

Tests used:
[1] = molecular target: T1, Human IL-33 (Axxora/Adipogen AG-40B-0038) (human, UniProt O95760 112-270, limits assumed); test: cell-based or functional assay
T1 sequence (looked up): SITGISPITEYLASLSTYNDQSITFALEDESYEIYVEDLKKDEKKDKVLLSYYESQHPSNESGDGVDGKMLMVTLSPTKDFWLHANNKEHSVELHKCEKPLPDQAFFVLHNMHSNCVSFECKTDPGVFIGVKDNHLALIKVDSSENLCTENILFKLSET

[2] = molecular target: T1, Human IL-33 (Axxora/Adipogen …); test: cell-based or functional assay; remark: listed apart in the source
[3] = molecular target: T2, Human IL-33 (Axxora/Alexis ALX-522-098) (human, UniProt O95760 112-270); test: cell-based or functional assay
T2 sequence (looked up): T1 sequence (looked up)

[4] = molecular target: T1, Human IL-33 (Axxora/Adipogen …); test: cell-based or functional assay; remark: listed apart in the source
[5] = molecular target: T3, Human IL-33 Flag®His (human); test: ELISA, biotinylated antigen on streptavidin plate, anti-human IgG HRP
T3 construct: Mature IL-33 with C-terminal FLAG 10xHis tag, from E. coli; biotinylated via free cysteines where used biotinylated; also called Mature Human IL-33_FH; human IL-33 FH
T3 chain: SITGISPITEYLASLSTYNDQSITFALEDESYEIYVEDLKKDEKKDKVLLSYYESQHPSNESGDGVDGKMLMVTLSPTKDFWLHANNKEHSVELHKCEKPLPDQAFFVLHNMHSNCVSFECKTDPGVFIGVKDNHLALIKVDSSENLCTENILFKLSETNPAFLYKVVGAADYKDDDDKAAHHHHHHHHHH
Description: (§1) 96-well Greiner polypropylene plates (Greiner, 650201) were used for dilution preparation. Generally, each dilution was prepared in duplicate. IgG dilutions were allowed to block in PBS-M for 1 hour at room temperature before being used directly in ELISA experiments.
(§2) Streptavidin plates (Thermo Scientific, AB-1226) were coated with biotinylated antigen at 0.5 μg/ml in PBS and incubated overnight at 4° C. Plates were washed 3× with PBS and blocked with 300 μl/well blocking buffer (PBS-M) for 1 hour. Plates were washed 1× with PBS and blocked samples added, 50 μl/well for 1 hour at room temperature. […] Plates were washed 3× with PBS-T and developed with TMB, 50 μl/well (Sigma, T0440). The reaction was quenched with 50 μl/well 0.1M H2504 before reading on an EnVision™ plate reader, or similar equipment, at 450 nm.
(§3) Species cross-reactivity of anti-IL-33 antibodies was determined using a plate-based ELISA. Streptavidin plates (Thermo Scientific, AB-1226) were coated with biotinylated antigen at 0.5 μg/ml in PBS. Binding of purified IgG preparations was detected with anti-human IgG HRP (Sigma, A0170).

[6] = molecular target: T4, Cynomolgus IL-33 Flag®His (cynomolgus monkey); test: as above
T4 construct: C-terminal FLAG 10xHis tag, E. coli; also called Mature Cynomolugus IL-33; cyno IL-33 FH
T4 chain: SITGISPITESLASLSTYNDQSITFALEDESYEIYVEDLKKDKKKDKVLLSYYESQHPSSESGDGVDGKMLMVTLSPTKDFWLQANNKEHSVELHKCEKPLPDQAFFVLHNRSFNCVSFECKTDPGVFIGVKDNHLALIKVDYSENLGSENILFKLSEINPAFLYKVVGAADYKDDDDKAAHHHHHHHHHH
Description: as §1, §2, §3

[7] = molecular target: T5, Mouse IL-33 Flag®His (mouse); test: as above
T5 construct: C-terminal FLAG 10xHis tag, E. coli; also called Mature Mouse IL-33_FH; mouse IL-33 FH
T5 chain: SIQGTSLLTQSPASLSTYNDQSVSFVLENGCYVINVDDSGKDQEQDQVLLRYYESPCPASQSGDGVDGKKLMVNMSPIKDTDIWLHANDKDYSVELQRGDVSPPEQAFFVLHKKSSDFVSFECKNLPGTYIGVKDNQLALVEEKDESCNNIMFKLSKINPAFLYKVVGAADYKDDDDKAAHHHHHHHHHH
Description: as §1, §2, §3

[8] = molecular target: T3, Human IL-33 Flag®His; test: BIAcore 2000 solution affinity, 48 h equilibration at 25 C, free IgG read on biotinylated IL-33 chip
Description: The binding affinity of purified IgG samples of exemplary binding members to human, cynomolgus or mouse IL-33 was determined by solution affinity using a BIAcore 2000 (GE healthcare). A biotinylated-IL33 surface was immobilised on a streptavin coated sensor chip (GE healthcare cat. No. BR-1000-32). Anti-IL33 antibodies were incubated with various concentrations of unlabelled IL33 and equilibrated at 25° C. for 48 hours. The amount of free antibody was determined by flowing the samples over the IL33 chip and measuring the response compared to a standard curve of antibody. Affinities were determined using the solution affinity fit in BIAevaluation software. The affinities for antibodies IL330101, H338L293, IL330388, IL330396 binding to human, cynomolgus or mouse IL-33 are shown in Table 15.

[9] = molecular target: T5, Mouse IL-33 Flag®His; test: ELISA, biotinylated antigen on streptavidin plate, purified IgG
Description: as §2, §3

[10] = molecular target: T6, H338L293 (SEQ ID NOs 182 and 187); test: Biacore T100, IgG captured on Protein G', 0.625-20 nM peptide as analyte, 1:1 fit
T6 construct: IgG; also called H338L293_fgl; H338L293 IgG
Text: The identified peptide together with a truncate ([…]) and scrambled variants of both, were then chemically synthesised and used in confirmatory T100 Biacore (GE Healthcare) binding studies. Protein G′ (Sigma Aldrich, P4689) was covalently coupled to the surface of a CM5 sensor chip (GE Healthcare) using standard amine coupling reagents according to manufacturer's instructions. The protein G′ surface was used to capture H338L293 or ST2-Fc via the Fc domain to provide a surface density of approximately 290 RU per cycle. IL33 peptides prepared in HBS-EP+ buffer, at a range of concentrations were passed over the sensor chip surface. The surface was regenerated using two 10 mM Glycine washes of pH 1.7 and pH 1.5 between each injection of antibody. The resulting sensorgrams were evaluated using Biacore T100 evaluation software 2.0.3 (GE Healthcare) and fitted to a 1:1 Langmuir binding model, to provide relative binding data.

[11] = molecular target: T7, Human ST2-Fc (R&D Systems, or source not stated in the example) (human, UniProt Q01638 19-328); test: SPR BIAcore 2000, ST2 captured via Fc-tag on anti-human Fc, IL-33 7.8 nM to 0.24 nM as analyte, 1:1 Langmuir
T7 construct: extracellular domain; also called sST2.Fc; sST2
T7 sequence (looked up): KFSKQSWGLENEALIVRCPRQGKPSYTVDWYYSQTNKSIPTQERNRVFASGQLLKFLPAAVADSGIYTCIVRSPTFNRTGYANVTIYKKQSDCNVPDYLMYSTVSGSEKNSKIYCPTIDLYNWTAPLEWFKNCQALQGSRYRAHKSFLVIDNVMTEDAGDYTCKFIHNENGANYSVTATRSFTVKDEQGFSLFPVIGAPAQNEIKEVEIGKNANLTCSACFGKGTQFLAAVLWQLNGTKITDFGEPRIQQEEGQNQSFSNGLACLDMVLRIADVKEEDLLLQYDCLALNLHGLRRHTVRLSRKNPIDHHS
Description: The disulphide bonded IL-33 is likely a very different structure to the reduced, ST2-binding IL-33 form (FIG. 22, 23), and conversion to the disulphide bonded form was associated with loss of functional activity (FIG. 17C). To investigate this, the disulphide bonded form of IL-33 was tested for ability to bind ST2 by BIAcore analysis. Direct binding of IL-33 to the extracellular domain of ST2 was determined by Surface Plasmon Resonance using a BIAcore 2000 (GE healthcare). ST2 was immobilised via the Fc-tag using an anti-human Fc capture (GE healthcare BR-1003-39) on a CM5 sensor chip (GE healthcare BR-1003-99) to give a stable surface of approximately 150 RU. IL-33 was flowed over the surface at 30 ul/min for three minutes to determine association rates. Dissociation was measured by flowing buffer at 30 ul/min for 15 minutes. Sensorgrams were interpreted using BIAevaluation software and kinetics were determined using double reference subtracted sensorgrams using a 1:1 (Langmuir) binding model.

T6 sequence (VL, as listed by the source): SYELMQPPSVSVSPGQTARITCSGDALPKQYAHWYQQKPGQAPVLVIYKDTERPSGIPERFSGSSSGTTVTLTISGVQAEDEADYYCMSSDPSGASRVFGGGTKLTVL

B1: IL330101 IgG (antibody, V domains shown)
VH: EVQLLESGGGLVQPGGSLRLSCAASGFTFSSYAMSWVRQAPGKGLEWVSAISGSGGSTYYADSVKGRFTISRDNSKNTLYLQMNSLRAEDTAVYYCVRVVAGYFDSWGRGTLVTVSS
VL: SYVLTQPPSVSVSPGQTARITCSGDALPKQYAHWYQQKPGQAPALVIYKDTERPSGIPERFSGSSSGTTVTLTISGVQAEDEADYYCQSADSSGASRVFGGGTKVTVL
notes: IgG1 or IgG1-TM; also called mAb IL330101; IL3300101
- Huvec IL-6 production, maximum inhibition [1]: ~70%
- Mast cell IL-6 production, inhibition [1]: 100%
- IC50 (geomean), Huvec IL-6 production [2]: 497 nM
- IC50 (geomean), Mast cell IL-6 production [2]: 49 nM
- IC50, TF-1 proliferation [3]: 149 nM
- IC50, Huvec IL-6 production [4]: 193 nM
- IC50, Mast cell IL-6 production [4]: 93 nM
- EC50 [5]: 1.19 nM
- EC50 [6]: 1.2 nM
- EC50 [7]: 0.85 nM
- Kd [8]: 0.0032 pM

B2: IL330065 IgG (antibody, V domains shown)
VH: EVQLVQSGAEVKKPGTAVKISCKASGYTFTDYYIHWVQQAPGKGLEWMGLVDPEDGETKYAEKFQGRVSITADTSTDTAYMELRSLTSEDTAVYFCTMGWAQWGRGTLVTVSS
VL: QSVLTQPPSASGTPGQRVTISCSGSSSNIGSNYVYWYQQVPGTAPKLVIYRDFQRPSGVPDRFSGSKSGNSASLVISGLRSEDEGEYVCAAWDDSLTGPRFGGGTKVTVL
notes: IgG1 or IgG1-TM (L234F, L235E, P331S); functional data combine both formats
- IC50 (geomean), Huvec IL-6 production [2]: 87 nM
- IC50 (geomean), Mast cell IL-6 production [2]: 12 nM
- IC50 (geomean), TF-1 proliferation [3]: 81 nM
- binding result [9]: no binding
- EC50 [5]: 0.65 nM
- EC50 [6]: 0.66 nM

Results, then the binder that gave them:

- Kd [10]: 2.36 nM
B3: Truncated IL-33 epitope peptide (peptide)
peptide: LSPTKDFWLHANNKEHSVELHK
notes: Chemically synthesised; also called truncate peptide

- Kd [11]: 0.2 nM
B4: redIL-33 (detagged human IL33-01, BK349) (ligand, UniProt O95760 112-270, looked up)
chain: T1 sequence (looked up)
notes: Reduced form; also called reduced IL-33; Human IL33-01 detagged
